Assay results reported in paper PMC8720176.
Read-outs that look alike come from different tables or passages of the source.

T1: Δ30-EXO5 WT (Homo sapiens, UniProt Q9H790 31-373, del1-30)
T1 sequence: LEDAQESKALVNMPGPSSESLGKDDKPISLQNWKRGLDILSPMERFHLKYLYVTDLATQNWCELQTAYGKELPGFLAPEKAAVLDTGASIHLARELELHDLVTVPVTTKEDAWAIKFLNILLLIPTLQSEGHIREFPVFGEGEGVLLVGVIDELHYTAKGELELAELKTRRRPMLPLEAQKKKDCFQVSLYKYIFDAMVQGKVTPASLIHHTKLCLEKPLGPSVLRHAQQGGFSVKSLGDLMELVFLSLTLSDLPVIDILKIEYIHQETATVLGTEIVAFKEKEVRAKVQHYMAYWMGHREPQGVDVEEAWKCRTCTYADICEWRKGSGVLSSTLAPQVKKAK

T2: T88E-Δ30-EXO5 (Homo sapiens, UniProt Q9H790 31-373, T88E;del1-30)
T2 sequence: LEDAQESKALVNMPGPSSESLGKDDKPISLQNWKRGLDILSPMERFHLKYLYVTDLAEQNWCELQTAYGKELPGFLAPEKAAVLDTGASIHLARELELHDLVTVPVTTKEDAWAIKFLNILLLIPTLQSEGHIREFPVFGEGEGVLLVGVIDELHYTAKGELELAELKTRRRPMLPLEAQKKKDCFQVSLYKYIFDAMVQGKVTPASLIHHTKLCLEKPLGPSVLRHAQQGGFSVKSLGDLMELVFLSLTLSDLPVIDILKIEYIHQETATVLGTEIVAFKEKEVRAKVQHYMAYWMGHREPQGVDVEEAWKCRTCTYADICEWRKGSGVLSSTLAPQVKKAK


How the values were obtained:
Experiment in all cases: X-ray crystallography
Δ30-EXO5 WT [1] = biological target: T1, Δ30-EXO5 WT
T88E-Δ30-EXO5 = biological target: T2, T88E-Δ30-EXO5
Δ30-EXO5 WT [2] = biological target: T1, Δ30-EXO5 WT; remark: listed apart in the source

Row | Binder | binding result (Δ30-EXO5 WT [1]) | binding result (T88E-Δ30-EXO5) | binding result (Δ30-EXO5 WT [2])
1 | ATTGCTGAAGGG (ssDNA) [12mer] | binds | – | –
2 | TTTTTTTTTTTT (ssDNA, 3' thiol modifier C3 S-S) [dT12] | – | binds | binds
